{"source": "patent US20130183702", "test_system": "T1, cholesterol-tagged, protease-sensitive polyacrylic acid block copolymer containing the peptide GSGRSAGC (SEQ ID NO: 20), embedded in polymer-caged liposomes (PCLs)", "T1 sequence": "GSGRSAGC", "data": [{"substance": "urokinase plasminogen activator (uPA)", "values": [{"measurement": "carboxyfluorescein release from PCLs (total fluorescent intensity), -uPA vs +uPA (25 ug/mL, fresh batch), second test", "result": "They show very little difference in total intensity and the p value is 0.6617 between the two, indicating that they are not different"}, {"measurement": "carboxyfluorescein release from PCLs (total fluorescent intensity), no uPA vs 25 ug/mL uPA, first test", "result": "there was very little difference between the no uPA sample and the uPA sample, indicating that the polymer caged liposome did not have the desired sensitivity to uPA (p=0.5173)"}, {"measurement": "carboxyfluorescein release from PCLs (total fluorescent intensity), no uPA vs renatured uPA, third test", "result": "there is a difference between the no uPA sample and the uPA sample with the uPA sample being significantly higher (p value 0.0071)"}, {"measurement": "change in conductance (current vs. time) after adding 10^-11 mol urokinase to MgSO4-loaded PCLs", "result": "A significant increase in conductance was observed due to the release of Mg^2+ and SO4^2- from the liposomes' hydrophilic interior"}, {"measurement": "fluorescence of cyanine 7.0 released from PCLs after adding urokinase-type plasminogen activator, recorded every 5 min", "result": "The highest peak was visible after 50 minutes of incubation time"}]}]}
